For this experiment, the target named is human CRBN (amino acids 40-442) in complex with full length human DDB1 (human) (UniProt Q96SW2). The experiment is described as follows: SPR (Biacore T200): GST-GSPT1 domains 2 and 3 captured by anti-GST antibody, CRBN-DDB1 as analyte, 10 uM Compound C; data not shown.

pKd: −log10 of the molar value.

human CRBN (amino acids 40-442) in complex with full length human DDB1 (human), sequence (Q96SW2 40-442, chain 1 of 2): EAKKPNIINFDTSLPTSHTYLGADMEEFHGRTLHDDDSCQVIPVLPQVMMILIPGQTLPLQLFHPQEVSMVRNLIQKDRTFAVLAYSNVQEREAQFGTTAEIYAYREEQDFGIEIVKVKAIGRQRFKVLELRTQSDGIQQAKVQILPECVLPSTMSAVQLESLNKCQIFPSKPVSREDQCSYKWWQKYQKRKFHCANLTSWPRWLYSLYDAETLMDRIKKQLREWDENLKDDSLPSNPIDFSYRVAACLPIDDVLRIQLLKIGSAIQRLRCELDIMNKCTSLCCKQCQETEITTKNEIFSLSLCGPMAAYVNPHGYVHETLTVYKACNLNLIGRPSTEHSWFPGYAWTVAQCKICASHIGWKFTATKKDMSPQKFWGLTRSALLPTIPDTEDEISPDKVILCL
human CRBN (amino acids 40-442) in complex with full length human DDB1 (human), sequence (Q16531 2-1140, chain 2 of 2, further chain): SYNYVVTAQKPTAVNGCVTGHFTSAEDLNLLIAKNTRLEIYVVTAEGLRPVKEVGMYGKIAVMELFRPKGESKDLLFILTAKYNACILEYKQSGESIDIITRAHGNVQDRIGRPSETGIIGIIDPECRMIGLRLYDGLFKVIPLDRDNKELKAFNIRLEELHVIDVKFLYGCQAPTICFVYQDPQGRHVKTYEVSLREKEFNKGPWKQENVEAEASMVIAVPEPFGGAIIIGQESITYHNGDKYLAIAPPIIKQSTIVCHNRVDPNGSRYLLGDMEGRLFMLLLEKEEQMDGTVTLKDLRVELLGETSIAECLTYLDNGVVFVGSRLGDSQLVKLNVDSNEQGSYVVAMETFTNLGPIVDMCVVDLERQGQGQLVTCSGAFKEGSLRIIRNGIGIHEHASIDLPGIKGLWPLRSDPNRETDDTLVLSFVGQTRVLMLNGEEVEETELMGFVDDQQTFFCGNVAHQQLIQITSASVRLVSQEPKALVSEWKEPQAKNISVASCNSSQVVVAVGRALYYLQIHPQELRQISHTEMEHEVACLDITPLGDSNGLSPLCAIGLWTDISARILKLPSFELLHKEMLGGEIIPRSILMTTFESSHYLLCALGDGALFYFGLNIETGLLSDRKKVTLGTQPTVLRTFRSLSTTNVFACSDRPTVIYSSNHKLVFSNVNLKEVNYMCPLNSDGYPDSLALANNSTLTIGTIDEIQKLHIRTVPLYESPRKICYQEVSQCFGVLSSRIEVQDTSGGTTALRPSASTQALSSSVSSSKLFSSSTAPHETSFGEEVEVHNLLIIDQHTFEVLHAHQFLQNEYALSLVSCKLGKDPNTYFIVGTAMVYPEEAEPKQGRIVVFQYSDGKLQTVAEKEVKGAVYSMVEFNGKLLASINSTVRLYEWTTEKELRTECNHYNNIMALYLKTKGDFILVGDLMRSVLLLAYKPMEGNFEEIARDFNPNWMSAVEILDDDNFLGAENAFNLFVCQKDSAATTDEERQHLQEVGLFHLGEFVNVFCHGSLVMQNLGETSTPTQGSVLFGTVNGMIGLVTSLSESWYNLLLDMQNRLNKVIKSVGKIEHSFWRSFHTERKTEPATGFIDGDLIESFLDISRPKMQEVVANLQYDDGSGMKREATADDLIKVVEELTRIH

For “GST-GSPT1-domain 2 and 3 (from UniProt P15170 437-633)”, the pKd was 6.40.
